# Reference: article PMC7262597 (2020)
# B1: Sir2-myc [Drosophila] / GST-Atg8a-WT [Drosophila] (parent complex)
# chain 1: MMENYEEIRLGHIRSKDLGNQVPDTTQFYPPTKFDFGAEILASTSTEAEAEAEATATTTEPATSELAGKANGEIKTKTLAAREEQEIGANLEHKTKNPTKSMGEDEDDEEEEEEDDEEEEEDDEEGITGTSNEDEDSSSNCSSSVEPDWKLRWLQREFYTGRVPRQVIASIMPHFATGLAGDTDDSVLWDYLAHLLNEPKRRNKLASVNTFDDVISLVKKSQKIIVLTGAGVSVSCGIPDFRSTNGIYARLAHDFPDLPDPQAMFDINYFKRDPRPFYKFAREIYPGEFQPSPCHRFIKMLETKGKLLRNYTQNIDTLERVAGIQRVIECHGSFSTASCTKCRFKCNADALRADIFAQRIPVCPQCQPNKEQSVDASVAVTEEELRQLVENGIMKPDIVFFGEGLPDEYHTVMATDKDVCDLLIVIGSSLKVRPVAHIPSSIPATVPQILINREQLHHLKFDVELLGDSDVIINQICHRLSDNDDCWRQLCCDESVLTESKELMPPEHSNHHLHHHLLHHRHCSSESERQSQLDTDTQSIKSNSSADYILGSAGTCSDSGFESSTFSCGKRSTAAEAAAIERIKTDILVELNETTALSCDRLGLEGPQTTVESYRHLSIDSSKDSGIEQCDNEATPSYVRPSNLVQETKTVAPSLTPIPQQRGKRQTAAERLQPGTFYSHTNNYSYVFPGAQVFWDNDYSDDDDEEEERSHNRHSDLFGNVGHNYKDDDEDACDLNAVPLSPLLPPSLEAHIVTDIVNGSNEPLPNSSPGQKRTACIIEQQPTPAIETEIPPLKKRRPSEENKQQTQIERSEESPPPGQLAAV
# chain 2: MKFQYKEEHAFEKRRAEGDKIRRKYPDRVPVIVEKAPKARIGDLDKKKYLVPSDLTVGQFYFLIRKRIHLRPEDALFFFVNNVIPPTSATMGSLYQEHHEEDYFLYIAYSDENVYGMAKIN
# Variants of: B1
# Experiment: GST pull-down from larval lysate, anti-myc immunoblot, quantified; parent: 1; read off a plot
row,Variant,ratio to parent
1,chain 2 Y49A,~0.21
